Here are results for three molecules from article PMC10397247.

One test deals with T1, 4H754-bH.
T1 chain: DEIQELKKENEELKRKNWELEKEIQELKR
The experiment in a line: two-hybrid library CCNG1.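 Also: natural log of median RNA to DNA barcode read ratio; higher means stronger binding.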

A further test deals with T2, 4H967-bH.
T2 chain: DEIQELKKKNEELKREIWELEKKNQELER
The experiment in a line: two-hybrid library CCNG1.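 Also: natural log of median RNA to DNA barcode read ratio; higher means stronger binding.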

A further test concerns the target T3, 4H908-bH.
T3 chain: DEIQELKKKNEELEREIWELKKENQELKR
The experiment in a line: two-hybrid library CCNG1.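 Also: natural log of median RNA to DNA barcode read ratio; higher means stronger binding.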

Another test concerns the target T4, 4H717-bH.
T4 chain: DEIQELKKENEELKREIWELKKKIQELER
The experiment in a line: two-hybrid library CCNG1.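 Also: natural log of median RNA to DNA barcode read ratio; higher means stronger binding.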

The next test addresses T5, 4H797-bH.
T5 chain: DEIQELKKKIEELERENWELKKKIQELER
The experiment in a line: two-hybrid library CCNG1.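 Also: natural log of median RNA to DNA barcode read ratio; higher means stronger binding.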

In a further test the target is T6, 4H883-bH.
T6 chain: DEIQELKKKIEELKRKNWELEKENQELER
The experiment in a line: two-hybrid library CCNG1.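 Also: natural log of median RNA to DNA barcode read ratio; higher means stronger binding.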

The target in the next test is T7, 4H72-bH.
T7 chain: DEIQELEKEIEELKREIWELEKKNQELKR
The experiment in a line: two-hybrid library CCNG1.

For another test, the target named is T8, 4H953-bH.
T8 chain: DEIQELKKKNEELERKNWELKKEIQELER
The experiment in a line: two-hybrid library CCNG1.

The target of a further test is T9, 4H883-bN.
T9 chain: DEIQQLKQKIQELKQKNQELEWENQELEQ
The experiment in a line: two-hybrid library CCNG1.

The target in a further test is T10, 4H918-bH.
T10 chain: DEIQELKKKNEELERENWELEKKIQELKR
The experiment in a line: two-hybrid library CCNG1.

The target in the next test is T11, 4H607-bH.
T11 chain: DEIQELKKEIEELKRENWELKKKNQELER
The experiment in a line: two-hybrid library CCNG1.

For the next test, the target named is T12, 4H687-bH.
T12 chain: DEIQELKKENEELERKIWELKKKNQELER
The experiment in a line: two-hybrid library CCNG1.

The next test has as its target T13, 4H432-AA.
T13 chain: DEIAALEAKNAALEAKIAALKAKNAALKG
The experiment in a line: two-hybrid library CCmax. Conditions: mean of both orientations.

The next test has as its target T14, 4H3915-AA.
T14 chain: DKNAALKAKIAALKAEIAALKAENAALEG
The experiment in a line: two-hybrid library CCmax. As to conditions: mean of both orientations.

In the next test the target is T15, 4H3777-AA.
T15 chain: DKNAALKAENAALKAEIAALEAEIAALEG
The experiment in a line: two-hybrid library CCmax. Conditions: mean of both orientations.

The target of a further test is T16, 4H3629-AA.
T16 chain: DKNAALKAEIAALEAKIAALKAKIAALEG
The experiment in a line: two-hybrid library CCmax. As to conditions: mean of both orientations.

Another test has as its target T17, 4H3619-AA.
T17 chain: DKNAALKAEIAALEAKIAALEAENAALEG
The experiment in a line: two-hybrid library CCmax.

The next test concerns the target T18, 4H446-AA.
T18 chain: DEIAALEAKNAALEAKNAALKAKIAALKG
The experiment in a line: two-hybrid library CCmax. Conditions: mean of both orientations.

The target in a further test is T19, 4H63-AA.
T19 chain: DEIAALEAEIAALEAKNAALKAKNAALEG
The experiment in a line: two-hybrid library CCmax. Conditions: mean of both orientations.

In the next test the target is T20, 4H3974-AA.
T20 chain: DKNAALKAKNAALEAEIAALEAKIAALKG
The experiment in a line: two-hybrid library CCmax. Conditions: mean of both orientations.

The target of a further test is T21, 4H380-AA.
T21 chain: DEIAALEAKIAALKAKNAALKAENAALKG
The experiment in a line: two-hybrid library CCmax. Conditions: mean of both orientations.

B1: 4H717-bH (peptide)
chain: DEIQELKKENEELKREIWELKKKIQELER
On to B1, for which the interaction score in the test with 4H754-bH was 0.538; in the test with 4H967-bH, -0.767; with 4H908-bH, -1.59; with 4H717-bH it was 0.358; with 4H797-bH, -1.17; in the test with 4H883-bH, -0.589. Besides, the interaction score with 4H72-bH is -0.629; with 4H953-bH, -0.135; with 4H883-bN, -0.103; in the test with 4H918-bH, 0.0812.

B2: 4H607-bH (peptide)
chain: DEIQELKKEIEELKRENWELKKKNQELER
Consider B2, for which the interaction score with 4H754-bH was -0.342; with 4H967-bH it was -2; in the test with 4H908-bH, -1.04; with 4H717-bH, 0.512; with 4H797-bH, -1.49; with 4H607-bH, 0.163. Moreover, the interaction score was 0.522 in the test with 4H883-bH; -1.24 in the test with 4H72-bH; -0.825 with 4H953-bH; -0.72 with 4H687-bH; -0.801 with 4H918-bH.

B3: 4H3619-AA (peptide)
chain: DKNAALKAEIAALEAKIAALEAENAALEG
Regarding B3, the interaction score with 4H432-AA was -0.708; in the test with 4H3915-AA, -0.429; with 4H3777-AA it was -1.36; with 4H3629-AA it was 0.411; with 4H3619-AA, -1.28; with 4H446-AA, -1.21. Further, the interaction score with 4H63-AA is -0.357; with 4H3974-AA, -0.337; in the test with 4H380-AA, -0.137.
